Blank lines part the entries; values can stand above or below the binder they belong to.
Experiments:
[1] = biological target: T1, human CD70 expressed on parental (WT) Jurkat cells (human, UniProt P32970 1-193); assay: cell-based or functional assay
T1 sequence: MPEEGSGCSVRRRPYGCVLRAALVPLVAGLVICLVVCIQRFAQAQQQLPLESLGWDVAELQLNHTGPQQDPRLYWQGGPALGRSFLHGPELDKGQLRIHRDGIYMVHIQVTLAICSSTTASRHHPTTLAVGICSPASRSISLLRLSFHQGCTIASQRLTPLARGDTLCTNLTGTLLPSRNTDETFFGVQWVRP

[2] = biological target: T2, recombinant biotinylated human CD70 protein (human, UniProt P32970 39-193, biotinylated (site not stated)); assay: flow cytometry: CAR-transduced Jurkat cells incubated with recombinant biotinylated human CD70, streptavidin-PE; percent of cells binding
T2 construct: also called recombinant biotinylated hCD70 protein
T2 sequence: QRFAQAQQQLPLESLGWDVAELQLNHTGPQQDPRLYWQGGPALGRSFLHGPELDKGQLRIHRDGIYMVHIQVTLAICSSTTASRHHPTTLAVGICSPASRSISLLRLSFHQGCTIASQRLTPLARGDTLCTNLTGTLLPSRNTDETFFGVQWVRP
Procedure: On Day 5, transduced cells were stained with human anti-CD69 antibody conjugated to PE-Cy7 and acquired on a flow cytometer to obtain percentage of CD69+ population for each CAR. […] Activation ratios (WT activation/KO activation) and protein binding were used to rank CARs.
Table 7: Activation ratio and protein binding of phage CARs were determined in the Jurkat screen. Activation ratio was used for in vitro characterization of CARs. Activation ratio was determined by calculating the ratio of the percentage of CD69 expression on WT Jurkat cells transduced with CD70 CAR (WT) to that on CD70 knockout Jurkat cells transduced with CD70 CAR (KO). A higher activation ratio indicates target-dependent activation. […] Protein binding values indicate the percentage of CD3+ CAR T cells that bind to human CD70 protein.

[3] = biological target: T3, recombinant human CD70 (AviTag, polyhistidine tag and chicken tenascin trimerization domain fused to the … (chicken; human, UniProt P10039 110-139, limits assumed); assay: SPR (Biacore 8K, 37 C): CD70 captured via anti-AviTag antibody on C1 chip, scFv-Fc as analyte; 1:1 Langmuir fit
T3 construct: domain: trimerization domain; Expressed in Expi293, purified by IMAC and SEC; Copies 3 is inferred from the trimerization domain; not shown: AviTag; polyhistidine tag
T3 sequence: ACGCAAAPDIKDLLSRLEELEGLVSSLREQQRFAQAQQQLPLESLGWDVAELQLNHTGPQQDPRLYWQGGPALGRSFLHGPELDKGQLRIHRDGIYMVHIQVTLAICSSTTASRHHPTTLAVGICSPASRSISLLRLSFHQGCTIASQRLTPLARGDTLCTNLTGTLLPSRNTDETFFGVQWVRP
Procedure: The antibody binding kinetics were determined by surface plasmon resonance (Biacore 8K, GE Healthcare Bio-Sciences, Pittsburgh Pa.) at 37° C. in HBS-T+ (0.01 M HEPES pH 7.4, 0.15 M NaCl, 0.05% v/v Tween20, 1 mg/mL BSA). Recombinant human CD70 diluted in HBS-T+ was captured on a C1 chip immobilized with an anti-AviTag™ antibody. Purified anti-CD70 scFv-Fc fusions were serially diluted into HBS-T+, injected at 30 uL/min for 2-4 min, dissociation monitored for 10 min then the surface regenerated with 75 mM phosphoric acid between injections. Buffer cycles were collected for each anti-CD70 scFv-Fc fusion for double-referencing purposes (double-referencing as described in Myszka, D. G. Improving biosensor analysis. J. Mol. Recognit. 12, 279-284 (1999)). Kinetic association rates (kₒₙ) and dissociation rates (koff) were obtained simultaneously by fitting the double-referenced sensorgrams globally to a 1:1 Langmuir with mass transport model using Biacore 8K Evaluation Software (GE Healthcare Bio-Sciences, Pittsburgh Pa.) then used to calculate an equilibrium dissociation constant (KD) from the kinetic rate constants (KD=koff/kₒₙ). The data was fit to a 1:1 steady state affinity model using Biacore 8K Evaluation Software to determine a steady state equilibrium dissociation constant (SS KD) as needed.

B4: P07D03 CD70-specific CAR (other)
chain: EVQLVQSGAEVKKPGESLKISCKGSGYRFTSYWIGWVRQMPGKGLEWMGSIYPDDSDTRYSPSFQGQVTISADKSISTAYLQWSSLKASDTAMYYCASSTVDYPGYSYFDYWGQGTLVTVSSGGGGSGGGGSGGGGSGGGGSELQSVLTQPPSASGTPGQRVTISCSGSRSNIGSNYVYWYQQLPGTAPKLLIYRNNQRPSGVPDRFSGSKSGTSASLAISGLRSEDEADYYCASWDGSLSAVVFGTGTKLTVLTTTPAPRPPTPAPTIASQPLSLRPEACRPAAGGAVHTRGLDFACDIYIWAPLAGTCGVLLLSLVITLYCKRGRKKLLYIFKQPFMRPVQTTQEEDGCSCRFPEEEEGGCELRVKFSRSADAPAYQQGQNQLYNELNLGRREEYDVLDKRRGRDPEMGGKPRRKNPQEGLYNELQKDKMAEAYSEIGMKGERRRGKGHDGLYQGLSTATKDTYDALHMQALPPR
notes: Chimeric antigen receptor on transduced Jurkat cells; the signal peptide is left out
Activation ratio (WT/KO) [1]: 3.04
Protein binding (%) [2]: 0.68%

B5: P02B10 CD70-specific CAR (other)
chain: EVQLLESGGGLVQPGGSLRLSCAASGFAFSNYAMSWVRQAPGKGLEWVSAIRGGGGSTYYADSVKGRFTISRDNSKNTLYLQMNSLRAEDTAVYYCARDFISGTWYPDYWGQGTLVTVSSGGGGSGGGGSGGGGSGGGGSELQSVLTQPPSASGTPGQRVTISCSGSSSNIGSNYVYWYQQLPGTAPKLLIYRNNQRPSGVPDRFSGSKSGTSASLAISGLRSEDEADYYCAAWDDSLSGVVFGGGTKLTVLTTTPAPRPPTPAPTIASQPLSLRPEACRPAAGGAVHTRGLDFACDIYIWAPLAGTCGVLLLSLVITLYCKRGRKKLLYIFKQPFMRPVQTTQEEDGCSCRFPEEEEGGCELRVKFSRSADAPAYQQGQNQLYNELNLGRREEYDVLDKRRGRDPEMGGKPRRKNPQEGLYNELQKDKMAEAYSEIGMKGERRRGKGHDGLYQGLSTATKDTYDALHMQALPPR
notes: as for B4
Activation ratio (WT/KO) [1]: 2.81
Protein binding (%) [2]: 77.9%

Results, then the binder that gave them:

Activation ratio (WT/KO) [1]: 14.4
Protein binding (%) [2]: 20.7%
B1: P08A02 CD70-specific CAR (other)
chain: EVQLVQSGAEVKKPGESLKISCKGSGYTFTNYWIAWVRQMPGKGLEWMGIIYPDGSDTRYSPSFQGQVTISADKSISTAYLQWSSLKASDTAMYYCARDITSWYYGEPAFDIWGQGTLVTVSSGGGGSGGGGSGGGGSGGGGSELQSVLTQPPSASGTPGQRVTISCSGSSSNIGSNYVYWYQQLPGTAPKLLIYRNNQRPSGVPDRFSGSKSGTSASLAISGLRSEDEADYYCATWDDSLGSPVFGTGTKLTVLTTTPAPRPPTPAPTIASQPLSLRPEACRPAAGGAVHTRGLDFACDIYIWAPLAGTCGVLLLSLVITLYCKRGRKKLLYIFKQPFMRPVQTTQEEDGCSCRFPEEEEGGCELRVKFSRSADAPAYQQGQNQLYNELNLGRREEYDVLDKRRGRDPEMGGKPRRKNPQEGLYNELQKDKMAEAYSEIGMKGERRRGKGHDGLYQGLSTATKDTYDALHMQALPPR
notes: as for B4

Kd [3]: 5.7 nM
koff [3]: 0.00155 s⁻¹
kon [3]: 275000 M⁻¹ s⁻¹
t1/2 [3]: 7.4 min
B2: P12F02 anti-CD70 scFv-Fc fusion (Fc fusion)
chain: EVQLLESGGGLVQPGGSLRLSCAASGFTFSSYAMSWVRQAPGKGLEWVSTISGTGGTTYYADSVKGRFTISRDNSKNTLYLQMNSLRAEDTAVYYCAKVRAGIDPTASDVWGQGTLVTVSSGGGGSGGGGSGGGGSGGGGSELQSVLTQPPSASGTPGQRVTISCSGSTSNIGRNYVYWYQQLPGTAPKLLIYRTNQRPSGVPDRFSGSKSGTSASLAISGLRSEDEADYYCAAWDDSLSGRVFGTGTKLTVL
notes: scFv-Fc expressed in Expi293; not shown: part of the hinge and Fc from a modified human IgG2

Kd [3]: 205 nM
koff [3]: 0.02 s⁻¹
kon [3]: 97700 M⁻¹ s⁻¹
t1/2 [3]: 0.6 min
B3: P13F04 anti-CD70 scFv-Fc fusion (Fc fusion)
chain: QVQLVQSGAEVKKPGSSVKVSCKASGGTFSSYAISWVRQAPGQGLEWMGEIIPIFGTASYAQKFQGRVTITADESTSTAYMELSSLRSEDTAVYYCARAGWDDSWFDYWGQGTLVTVSSGGGGSGGGGSGGGGSGGGGSELQSVLTQPPSASGTPGQRVTISCSGSNSNIGTNYVSWYQQLPGTAPKLLIYRSSRRPSGVPDRFSGSKSGTSASLAISGLRSEDEADYYCAAWDGSLSGHWVFGTGTKLTVL
notes: as for B2

From US20190233528A1 (published 2019)
